Consider 13 molecules from US20220389111A1 (SHANGHAI EPIMAB BIOTHERAPEUTICS, published 2022).

Experiment [1] has as its target T1, human CD39 protein (recombinant) (human, UniProt P49961 38-478, limits assumed).
T1 sequence: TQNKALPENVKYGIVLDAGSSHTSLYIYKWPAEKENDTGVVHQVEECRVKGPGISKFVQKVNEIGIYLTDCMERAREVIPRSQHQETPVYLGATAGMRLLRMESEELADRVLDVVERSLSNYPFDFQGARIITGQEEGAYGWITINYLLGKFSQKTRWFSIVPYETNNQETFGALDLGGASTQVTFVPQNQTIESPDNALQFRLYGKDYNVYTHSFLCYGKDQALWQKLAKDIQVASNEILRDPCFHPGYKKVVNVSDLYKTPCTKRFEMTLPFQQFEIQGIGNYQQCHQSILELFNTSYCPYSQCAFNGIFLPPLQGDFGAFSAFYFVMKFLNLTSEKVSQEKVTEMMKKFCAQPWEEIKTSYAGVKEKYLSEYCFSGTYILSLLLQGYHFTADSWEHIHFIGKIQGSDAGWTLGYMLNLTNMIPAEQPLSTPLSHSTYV
The experiment is described as follows: cell-based or functional assay.

The target in experiment [2] is T1, human CD39 protein (recombinant). The experiment is described as follows: ELISA on coated human CD39 protein. As for the experimental part:
To determine if anti-CD39 mAbs bind to human CD39, ELISA plates were incubated overnight at 4° C. with human CD39 protein or mouse CD39 protein diluted in PBS, pH7.4 buffer at 1 μg/ml. Plates were washed four times in washing buffer (PBS containing 0.05% Tween 20), and blocked for 1 hour at 37° C. with 200 μl per well blocking buffer (1% BSA in PBS containing 0.05% Tween 20). After blocking buffer was removed, hybridoma supernatant or diluted purified Abs were added to the wells at 100 μl per well and incubated at 37° C. for 1 hour. The wells were washed four times with washing buffer, and anti-mouse HRP (for mouse anti-human CD39 Ab characterization) or anti-rat HRP (for rat anti-mouse CD39 Ab characterization) (Sigma) were 1:5000 diluted and added to the wells at 100 μl per well. The plates were incubated for 1 hour at 37° C. and washed four times in washing buffer. 100 μl of tetramethylbenzidine (TMB) chromogenic solution were added per well. Following color development, the reaction was stopped with 1N HCl, and absorbance at 450 nm was measured. The data were proceeded by GraphPad software.
Humanized antibodies HuEM04-38-6 to HuEM0004-38-20 and chimeric antibodies EM04-38c, EM004-38c1, and EM0004-38c2 were tested for CD39 specific binding by ELISA as described in Example 1.2 and for inhibition of protein-based ATPase activity as described in Example 1.3.
For orientation: ELISA stands for enzyme-linked immunosorbent assay.

The term EC50 denotes the concentration giving half of the maximal effect.

B1: HuEM0004-38-6 (antibody, human IgG1, kappa, L234A L235A, V domains shown)
VH: EVQLVQSGAEVKKPGASVKVSCKASGYTFTSFWMHWVRQAPGQGLEWMGNINPRNGATKYNEKFRSRVTMTADTSISTAYMELSRLRSDDTAVYYCAREDYDEIYYAMDSWGQGTTVTVSS
VL: ENVLTQSPATLSLSPGERATLSCSASSSVIYMYWFQQKPGQAPRLLIYDTSNLASGIPARFSGSGSGTDYTLTISSLEPEDFAVYYCQQWSTYPLTFGQGTKLEIKR
For the molecule B1, in experiment [1], the “ATPase inhibition IC50” value stood at 140 nM and the “ATPase inhibition, inhibition %” value was determined as 64.1%.

B2: HuEM0004-38-13 (antibody, human IgG1, kappa, L234A L235A, V domains shown)
VH: EVQLVQSGAEVKKPGASVKVSCKASGYTFTSFWMHWVRQAPGQGLEWMGNINPRNGATKYNEKFRSRVTLTADKSISTAYMELSRLRSDDTAVYYCAREDYDEIYYAMDSWGQGTTVTVSS
VL: ENVLTQSPATLSLSPGERATLSCSASSSVIYMYWFQQKPGQSPRVLIYDTSNLASGIPARFSGSGSGTDYTLTISSLEPEDFAVYYCQQWSTYPLTFGQGTKLEIKR
notes: humanized mAb638, human IgG1/kappa
On to B2, for which, in experiment [1], the “ATPase inhibition IC50” value amounted to 36.2 nM and the “ATPase inhibition, inhibition %” value was found to be 98.7%. Besides, the EC50 in experiment [2] was found to be 0.023 µg/mL.

B3: HuEM0004-38-9 (antibody, human IgG1, kappa, L234A L235A, V domains shown)
VH: EVQLVQSGAEVKKPGASVKVSCKASGYTFTSFWMHWVRQAPGQGLEWIGNINPRNGATKYNEKFRSRVTLTADKSISTAYMELSRLRSDDTAVYYCAREDYDEIYYAMDSWGQGTTVTVSS
VL: ENVLTQSPATLSLSPGERATLSCSASSSVIYMYWFQQKPGQAPRLLIYDTSNLASGIPARFSGSGSGTDYTLTISSLEPEDFAVYYCQQWSTYPLTFGQGTKLEIKR
Consider B3, for which, in experiment [1], the “ATPase inhibition IC50” value came to 79.6 nM and the “ATPase inhibition, inhibition %” value worked out at 61.6%.

B4: HuEM0004-38-11 (antibody, human IgG1, kappa, L234A L235A, V domains shown)
VH: EVQLVQSGAEVKKPGASVKVSCKASGYTFTSFWMHWVRQAPGQGLEWMGNINPRNGATKYNEKFRSRVTMTADTSISTAYMELSRLRSDDTAVYYCAREDYDEIYYAMDSWGQGTTVTVSS
VL: ENVLTQSPATLSLSPGERATLSCSASSSVIYMYWFQQKPGQSPRVLIYDTSNLASGIPARFSGSGSGTDYTLTISSLEPEDFAVYYCQQWSTYPLTFGQGTKLEIKR
notes: as for B2
For B4, in experiment [1], the “ATPase inhibition IC50” value turned out to be 65.3 nM and the “ATPase inhibition, inhibition %” value was determined as 99.6%. Further, the EC50 in experiment [2] is 0.021 µg/mL.

B5: HuEM0004-38-15 (antibody, human IgG1, kappa, L234A L235A, V domains shown)
VH: EVQLVQSGAEVKKPGASVKVSCKASGYTFTSFWMHWVRQAPGQGLEWIGNINPRNGATKYNEKFRSKVTLTADKSISTAYMELSRLRSDDTAVYYCAREDYDEIYYAMDSWGQGTTVTVSS
VL: ENVLTQSPATLSLSPGERATLSCSASSSVIYMYWFQQKPGQSPRVLIYDTSNLASGIPARFSGSGSGTDYTLTISSLEPEDFAVYYCQQWSTYPLTFGQGTKLEIKR
notes: as for B2
B5: in experiment [1], the “ATPase inhibition IC50” value was 40.9 nM and the “ATPase inhibition, inhibition %” value was determined as 97.6%. Also, the EC50 in experiment [2] came to 0.031 µg/mL.

B6: HuEM0004-38-18 (antibody, human IgG1, kappa, L234A L235A, V domains shown)
VH: EVQLVQSGAEVKKPGASVKVSCKASGYTFTSFWMHWVRQAPGQGLEWMGNINPRNGATKYNEKFRSRVTLTADKSISTAYMELSRLRSDDTAVYYCAREDYDEIYYAMDSWGQGTTVTVSS
VL: ENVLTQSPATLSLSPGERATLSCSASSSVIYMYWFQQKPGQSPRVLIYDTSNLASGVPARFSGSGSGTDYTLTISSLEPEDFAVYYCQQWSTYPLTFGQGTKLEIKR
notes: as for B2
Take B6: in experiment [1], the “ATPase inhibition IC50” value stood at 18.9 nM and the “ATPase inhibition, inhibition %” value was 98.5%. Further, in experiment [2], the EC50 amounted to 0.019 µg/mL.

B7: HuEM0004-38-14 (antibody, human IgG1, kappa, L234A L235A, V domains shown)
VH: EVQLVQSGAEVKKPGASVKVSCKASGYTFTSFWMHWVRQAPGQGLEWIGNINPRNGATKYNEKFRSRVTLTADKSISTAYMELSRLRSDDTAVYYCAREDYDEIYYAMDSWGQGTTVTVSS
VL: ENVLTQSPATLSLSPGERATLSCSASSSVIYMYWFQQKPGQSPRVLIYDTSNLASGIPARFSGSGSGTDYTLTISSLEPEDFAVYYCQQWSTYPLTFGQGTKLEIKR
notes: as for B2
As to B7, in experiment [1], the “ATPase inhibition IC50” value is 36.9 nM and the “ATPase inhibition, inhibition %” value turned out to be 98.9%. For the same molecule, the half-maximal effective concentration (EC50) in experiment [2] is 0.021 µg/mL.

B8: HuEM0004-38-10 (antibody, human IgG1, kappa, L234A L235A, V domains shown)
VH: EVQLVQSGAEVKKPGASVKVSCKASGYTFTSFWMHWVRQAPGQGLEWIGNINPRNGATKYNEKFRSKVTLTADKSISTAYMELSRLRSDDTAVYYCAREDYDEIYYAMDSWGQGTTVTVSS
VL: ENVLTQSPATLSLSPGERATLSCSASSSVIYMYWFQQKPGQAPRLLIYDTSNLASGIPARFSGSGSGTDYTLTISSLEPEDFAVYYCQQWSTYPLTFGQGTKLEIKR
notes: as for B2
As to B8, in experiment [1], the “ATPase inhibition IC50” value is 83.2 nM and the “ATPase inhibition, inhibition %” value came out at 71.5%. Besides, in experiment [2], the EC50 was 0.175 µg/mL.

B9: HuEM0004-38-16 (antibody, human IgG1, kappa, L234A L235A, V domains shown)
VH: EVQLVQSGAEVKKPGASVKVSCKASGYTFTSFWMHWVRQAPGQGLEWMGNINPRNGATKYNEKFRSRVTMTADTSISTAYMELSRLRSDDTAVYYCAREDYDEIYYAMDSWGQGTTVTVSS
VL: ENVLTQSPATLSLSPGERATLSCSASSSVIYMYWFQQKPGQSPRVLIYDTSNLASGVPARFSGSGSGTDYTLTISSLEPEDFAVYYCQQWSTYPLTFGQGTKLEIKR
notes: as for B2
As to B9, in experiment [1], the “ATPase inhibition IC50” value is 41 nM and the “ATPase inhibition, inhibition %” value is 102%. The EC50 in experiment [2] was determined as 0.027 µg/mL.

B10: HuEM0004-38-12 (antibody, human IgG1, kappa, L234A L235A, V domains shown)
VH: EVQLVQSGAEVKKPGASVKVSCKASGYTFTSFWMHWVRQAPGQGLEWMGNINPRNGATKYNEKFRSRVTMTADKSISTAYMELSRLRSDDTAVYYCAREDYDEIYYAMDSWGQGTTVTVSS
VL: ENVLTQSPATLSLSPGERATLSCSASSSVIYMYWFQQKPGQSPRVLIYDTSNLASGIPARFSGSGSGTDYTLTISSLEPEDFAVYYCQQWSTYPLTFGQGTKLEIKR
notes: as for B2
For B10, in experiment [1], the “ATPase inhibition IC50” value was found to be 46.9 nM and the “ATPase inhibition, inhibition %” value came to 103%. In experiment [2], the EC50 came out at 0.023 µg/mL.

B11: HuEM0004-38-17 (antibody, human IgG1, kappa, L234A L235A, V domains shown)
VH: EVQLVQSGAEVKKPGASVKVSCKASGYTFTSFWMHWVRQAPGQGLEWMGNINPRNGATKYNEKFRSRVTMTADKSISTAYMELSRLRSDDTAVYYCAREDYDEIYYAMDSWGQGTTVTVSS
VL: ENVLTQSPATLSLSPGERATLSCSASSSVIYMYWFQQKPGQSPRVLIYDTSNLASGVPARFSGSGSGTDYTLTISSLEPEDFAVYYCQQWSTYPLTFGQGTKLEIKR
notes: as for B2
For B11, in experiment [1], the “ATPase inhibition IC50” value worked out at 20.4 nM and the “ATPase inhibition, inhibition %” value is 103%. Further, the EC50 in experiment [2] worked out at 0.044 µg/mL.

B12: HuEM0004-38-7 (antibody, human IgG1, kappa, L234A L235A, V domains shown)
VH: EVQLVQSGAEVKKPGASVKVSCKASGYTFTSFWMHWVRQAPGQGLEWMGNINPRNGATKYNEKFRSRVTMTADKSISTAYMELSRLRSDDTAVYYCAREDYDEIYYAMDSWGQGTTVTVSS
VL: ENVLTQSPATLSLSPGERATLSCSASSSVIYMYWFQQKPGQAPRLLIYDTSNLASGIPARFSGSGSGTDYTLTISSLEPEDFAVYYCQQWSTYPLTFGQGTKLEIKR
notes: as for B2
With B12, in experiment [1], the “ATPase inhibition IC50” value was 83.5 nM and the “ATPase inhibition, inhibition %” value came out at 71.4%. For the same molecule, in experiment [2], the EC50 was 0.149 µg/mL.

B13: HuEM0004-38-8 (antibody, human IgG1, kappa, L234A L235A, V domains shown)
VH: EVQLVQSGAEVKKPGASVKVSCKASGYTFTSFWMHWVRQAPGQGLEWMGNINPRNGATKYNEKFRSRVTLTADKSISTAYMELSRLRSDDTAVYYCAREDYDEIYYAMDSWGQGTTVTVSS
VL: ENVLTQSPATLSLSPGERATLSCSASSSVIYMYWFQQKPGQAPRLLIYDTSNLASGIPARFSGSGSGTDYTLTISSLEPEDFAVYYCQQWSTYPLTFGQGTKLEIKR
notes: as for B2
Turning to B13, in experiment [1], the “ATPase inhibition IC50” value was 81.8 nM and the “ATPase inhibition, inhibition %” value stood at 67.9%. Moreover, the EC50 in experiment [2] amounted to 0.097 µg/mL.
